Where a chain is given by its changes, count along the chain named.
Assays:
[1] = target: T1, PfRH5 protein variant version 3.0 (3D7 sequence, four putative N-linked glycosylation sites mutated Asn to … (Plasmodium falciparum (3D7 clone), UniProt Q8IFM5 26-526, N38Q | N214Q | Asn to Gln at N284 | Asn to Gln at N297)); experiment: SPR; basigin immobilised on a CM5 chip by amine coupling (850 RU); PfRH5 variant injected at 8-0.0625 uM, 120 s at 30 uL/min, 300 s dissociation; 20 C; 10 mM HEPES pH 7.4, 150 mM NaCl, 3 mM EDTA, 0.005% Tween-20, 2 mg/mL dextran, 1 mg/mL salmon sperm DNA; blank surface subtracted; global 1:1 interaction model; conditions: both partners purified
T1 construct: the four putative N-linked glycosylation sites (N38, N214, N284, N297) mutated Asn to Gln; The construct has an N-terminal BiP insect signal peptide (…); No cleavage site for the His6 tag is described; also called PfRH5 v3.0; v3.0
T1 sequence: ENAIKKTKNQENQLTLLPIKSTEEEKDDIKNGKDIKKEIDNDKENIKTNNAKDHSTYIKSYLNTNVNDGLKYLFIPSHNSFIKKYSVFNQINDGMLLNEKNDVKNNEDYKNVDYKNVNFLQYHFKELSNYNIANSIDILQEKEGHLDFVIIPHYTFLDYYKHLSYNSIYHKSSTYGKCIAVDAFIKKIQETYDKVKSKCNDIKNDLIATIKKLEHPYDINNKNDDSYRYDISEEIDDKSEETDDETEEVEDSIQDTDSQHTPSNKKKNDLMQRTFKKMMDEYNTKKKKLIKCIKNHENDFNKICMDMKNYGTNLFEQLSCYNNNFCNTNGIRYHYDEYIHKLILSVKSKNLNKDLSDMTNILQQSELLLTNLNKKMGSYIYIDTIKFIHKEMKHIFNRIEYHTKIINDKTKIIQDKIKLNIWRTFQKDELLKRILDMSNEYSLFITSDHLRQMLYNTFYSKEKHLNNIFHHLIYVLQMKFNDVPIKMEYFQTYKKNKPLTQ

[2] = target: T2, PfRH5 protein variant version 1.0 (7G8 sequence, four N-linked glycosylation sequons mutated Thr to Ala) (Plasmodium falciparum (7G8 …, UniProt Q8IFM5 26-526, C203Y | Thr to Ala in the sequon starting at N38 (position 40 worked out) | Thr …)); experiment: as above; conditions: both partners purified
T2 construct: The construct has an N-terminal 18-residue BiP insect signal peptide (…) in place of the native one; No cleavage site for the His6 tag is described; also called PfRH5 v1.0; v1.0
T2 sequence: T1 sequence with Q13N, T15A, C178Y, Q189N, T191A, Q259N, T261A, Q272N, T274A

B1: recombinant basigin, immunoglobulin domains 1 and 2 of the short isoform (22-205) (domain or fragment)
chain: GAAGTVFTTVEDLGSKILLTCSLNDSATEVTGHRWLKGGVVLKEDALPGQKTEFKVDSDDQWGEYSCVFLPEPMGTANIQLHGPPRVKAVKSSEHINEGETAMLVCKSESVPPVTDWAWYKITDSEDKALMNGSESRFFVSSSQGRSELHIENLNMEADPGQYRCNGTSSKGSDQAIITLRVRSH
notes: additional glycine left at the N-terminus from the TEV cleavage site; basigin (CD147), immunoglobulin domains 1 and 2 of the short isoform, residues 22-205; numbers count on: the short isoform; basigin is spoken of as the red blood cell receptor of the human malaria parasite; also called CD147; PfRH5 receptor; not shown: His6, N-terminal, cleaved
[1]
  binding result: binds
[2]
  binding result: binds
